Numbered stars: 1 amine (or outer) side, 2 acyl side, 3 side chain; on linkers, the order of the positions; unused ones are H or OH. * marks the point of attachment. C18 diacid = O=C(O)CCCCCCCCCCCCCCCCC(=O)*; γGlu = O=C(O)[C@H](CCC(=O)[*:2])N[*:1]
T1: human calcitonin receptor (human, UniProt P30988 25-474)
T1 construct: whole, on cells; also called hCT-R; hCTR
T1 sequence (looked up): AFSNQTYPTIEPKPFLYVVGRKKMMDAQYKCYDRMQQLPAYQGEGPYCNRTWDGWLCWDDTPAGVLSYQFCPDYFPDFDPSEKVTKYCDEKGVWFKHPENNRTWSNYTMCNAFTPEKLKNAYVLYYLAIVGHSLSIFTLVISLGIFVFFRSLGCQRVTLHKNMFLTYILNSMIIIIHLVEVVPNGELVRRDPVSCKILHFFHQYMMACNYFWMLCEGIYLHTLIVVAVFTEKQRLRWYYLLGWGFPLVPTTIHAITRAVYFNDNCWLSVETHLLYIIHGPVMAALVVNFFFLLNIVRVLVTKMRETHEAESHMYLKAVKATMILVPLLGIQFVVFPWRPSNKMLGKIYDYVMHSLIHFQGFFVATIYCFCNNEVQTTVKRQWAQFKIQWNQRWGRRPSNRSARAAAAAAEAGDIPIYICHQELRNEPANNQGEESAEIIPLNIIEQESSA


Molecular target: T1, human calcitonin receptor
Assay: whole-cell competition vs 125I-human calcitonin (Assay VIIa)
Method in brief: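 BHK tk'ts 13 cells stably co-expressing human calcitonin receptor and a CRE-luciferase reporter, seeded overnight at 37 °C. Bound tracer counted by scintillation after cold HBSS washes and NaOH/SDS lysis; IC₅₀ from one-site competition fit taken as receptor affinity.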

| Binder | IC50 [nM] |
| --- | --- |
| {C18 diacid-γGlu}-ASQLSTAALGRLSAQLHELATLPRTETGSGSP-NH2 (SMILES CC(C)C[C@H](NC(=O)[C@H](C)NC(=O)[C@H](C)NC(=O)[C@@H](NC(=O)[C@H](CO)NC(=O)[C@H](CC(C)C)NC(=O)[C@H](CCC(N)=O)NC(=O)[C@H](CO)NC(=O)[C@H](C)NC(=O)CC[C@H](NC(=O)CCCCCCCCCCCCCCCCC(=O)O)C(=O)O)[C@@H](C)O)C(=O)NCC(=O)N[C@@H](CCCNC(=N)N)C(=O)N[C@@H](CC(C)C)C(=O)N[C@@H](CO)C(=O)N[C@@H](C)C(=O)N[C@@H](CCC(N)=O)C(=O)N[C@@H](CC(C)C)C(=O)N[C@@H](Cc1c[nH]cn1)C(=O)N[C@@H](CCC(=O)O)C(=O)N[C@@H](CC(C)C)C(=O)N[C@@H](C)C(=O)N[C@H](C(=O)N[C@@H](CC(C)C)C(=O)N1CCC[C@H]1C(=O)N[C@@H](CCCNC(=N)N)C(=O)N[C@H](C(=O)N[C@@H](CCC(=O)O)C(=O)N[C@H](C(=O)NCC(=O)N[C@@H](CO)C(=O)NCC(=O)N[C@@H](CO)C(=O)N1CCC[C@H]1C(N)=O)[C@@H](C)O)[C@@H](C)O)[C@@H](C)O, also called Ex. #87) [[N-terminal(C18 diacid-gGlu), des1, 4Q, 16Q, 30S, 31G]mimylin] | 0.59 |
| {C18 diacid-γGlu}-ASELTTAVLGRLSAELHELATLPRTETGSGSP-NH2 (SMILES CC(C)C[C@H](NC(=O)[C@H](CCC(=O)O)NC(=O)[C@H](Cc1c[nH]cn1)NC(=O)[C@H](CC(C)C)NC(=O)[C@H](CCC(=O)O)NC(=O)[C@H](C)NC(=O)[C@H](CO)NC(=O)[C@H](CC(C)C)NC(=O)[C@H](CCCNC(=N)N)NC(=O)CNC(=O)[C@H](CC(C)C)NC(=O)[C@@H](NC(=O)[C@H](C)NC(=O)[C@@H](NC(=O)[C@@H](NC(=O)[C@H](CC(C)C)NC(=O)[C@H](CCC(=O)O)NC(=O)[C@H](CO)NC(=O)[C@H](C)NC(=O)CC[C@H](NC(=O)CCCCCCCCCCCCCCCCC(=O)O)C(=O)O)[C@@H](C)O)[C@@H](C)O)C(C)C)C(=O)N[C@@H](C)C(=O)N[C@H](C(=O)N[C@@H](CC(C)C)C(=O)N1CCC[C@H]1C(=O)N[C@@H](CCCNC(=N)N)C(=O)N[C@H](C(=O)N[C@@H](CCC(=O)O)C(=O)N[C@H](C(=O)NCC(=O)N[C@@H](CO)C(=O)NCC(=O)N[C@@H](CO)C(=O)N1CCC[C@H]1C(N)=O)[C@@H](C)O)[C@@H](C)O)[C@@H](C)O, also called Ex. #85) [[N-terminal(C18 diacid-gGlu), des1, 6T, 9V, 30S, 31G]mimylin] | 0.821 |
| {C18 diacid-γGlu}-ASELSTAVLGRLSAELHELATLPRTETGSGSP-NH2 (SMILES CC(C)C[C@H](NC(=O)[C@H](CCC(=O)O)NC(=O)[C@H](Cc1c[nH]cn1)NC(=O)[C@H](CC(C)C)NC(=O)[C@H](CCC(=O)O)NC(=O)[C@H](C)NC(=O)[C@H](CO)NC(=O)[C@H](CC(C)C)NC(=O)[C@H](CCCNC(=N)N)NC(=O)CNC(=O)[C@H](CC(C)C)NC(=O)[C@@H](NC(=O)[C@H](C)NC(=O)[C@@H](NC(=O)[C@H](CO)NC(=O)[C@H](CC(C)C)NC(=O)[C@H](CCC(=O)O)NC(=O)[C@H](CO)NC(=O)[C@H](C)NC(=O)CC[C@H](NC(=O)CCCCCCCCCCCCCCCCC(=O)O)C(=O)O)[C@@H](C)O)C(C)C)C(=O)N[C@@H](C)C(=O)N[C@H](C(=O)N[C@@H](CC(C)C)C(=O)N1CCC[C@H]1C(=O)N[C@@H](CCCNC(=N)N)C(=O)N[C@H](C(=O)N[C@@H](CCC(=O)O)C(=O)N[C@H](C(=O)NCC(=O)N[C@@H](CO)C(=O)NCC(=O)N[C@@H](CO)C(=O)N1CCC[C@H]1C(N)=O)[C@@H](C)O)[C@@H](C)O)[C@@H](C)O, also called Ex. #76) [[N-terminal(C18 diacid-gGlu), des1, 9V, 30S, 31G]mimylin] | 0.855 |
| {C18 diacid-γGlu}-ASELTTAVLGRLSAELHELATLPRTETGTGTP-NH2 (also called Ex. #95) [[N-terminal(C18 diacid-gGlu), des1, 6T, 9V, 30T, 31G, 32T]mimylin] | 1.7 |
| {C18 diacid-γGlu}-ASELTTAVLGRLEAELHELTTLPRTETGTGTP-NH2 [[N-terminal(C18 diacid-gGlu), des1, 6T, 9V, 14E, 21T, 30T, 31G, 32T]mimylin] | 9.15 |
| {C18 diacid-γGlu}-ASEVSTAVLGRLSAELHELATLPRTETGSGSP-NH2 (also called Ex. #86) [[N-terminal(C18 diacid-gGlu), des1, 5V, 9V, 30S, 31G]mimylin] | 0.943 |
| {C18 diacid-γGlu}-ASEVSTAVVGRLSAELHELATLPRTETGSGSP-NH2 (SMILES CC(C)C[C@H](NC(=O)[C@H](CCC(=O)O)NC(=O)[C@H](Cc1c[nH]cn1)NC(=O)[C@H](CC(C)C)NC(=O)[C@H](CCC(=O)O)NC(=O)[C@H](C)NC(=O)[C@H](CO)NC(=O)[C@H](CC(C)C)NC(=O)[C@H](CCCNC(=N)N)NC(=O)CNC(=O)[C@@H](NC(=O)[C@@H](NC(=O)[C@H](C)NC(=O)[C@@H](NC(=O)[C@H](CO)NC(=O)[C@@H](NC(=O)[C@H](CCC(=O)O)NC(=O)[C@H](CO)NC(=O)[C@H](C)NC(=O)CC[C@H](NC(=O)CCCCCCCCCCCCCCCCC(=O)O)C(=O)O)C(C)C)[C@@H](C)O)C(C)C)C(C)C)C(=O)N[C@@H](C)C(=O)N[C@H](C(=O)N[C@@H](CC(C)C)C(=O)N1CCC[C@H]1C(=O)N[C@@H](CCCNC(=N)N)C(=O)N[C@H](C(=O)N[C@@H](CCC(=O)O)C(=O)N[C@H](C(=O)NCC(=O)N[C@@H](CO)C(=O)NCC(=O)N[C@@H](CO)C(=O)N1CCC[C@H]1C(N)=O)[C@@H](C)O)[C@@H](C)O)[C@@H](C)O, also called Ex. #96) [[N-terminal(C18 diacid-gGlu), des1, 5V, 9V, 10V, 30S, 31G]mimylin] | 0.767 |
| {C18 diacid-γGlu}-ASQLSTAALGRLSAELHELATLPRTETGSGSP-NH2 (SMILES CC(C)C[C@H](NC(=O)[C@H](C)NC(=O)[C@H](C)NC(=O)[C@@H](NC(=O)[C@H](CO)NC(=O)[C@H](CC(C)C)NC(=O)[C@H](CCC(N)=O)NC(=O)[C@H](CO)NC(=O)[C@H](C)NC(=O)CC[C@H](NC(=O)CCCCCCCCCCCCCCCCC(=O)O)C(=O)O)[C@@H](C)O)C(=O)NCC(=O)N[C@@H](CCCNC(=N)N)C(=O)N[C@@H](CC(C)C)C(=O)N[C@@H](CO)C(=O)N[C@@H](C)C(=O)N[C@@H](CCC(=O)O)C(=O)N[C@@H](CC(C)C)C(=O)N[C@@H](Cc1c[nH]cn1)C(=O)N[C@@H](CCC(=O)O)C(=O)N[C@@H](CC(C)C)C(=O)N[C@@H](C)C(=O)N[C@H](C(=O)N[C@@H](CC(C)C)C(=O)N1CCC[C@H]1C(=O)N[C@@H](CCCNC(=N)N)C(=O)N[C@H](C(=O)N[C@@H](CCC(=O)O)C(=O)N[C@H](C(=O)NCC(=O)N[C@@H](CO)C(=O)NCC(=O)N[C@@H](CO)C(=O)N1CCC[C@H]1C(N)=O)[C@@H](C)O)[C@@H](C)O)[C@@H](C)O, also called Ex. #78) [[N-terminal(C18 diacid-gGlu), des1, 4Q, 30S, 31G]mimylin] | 0.605 |
| {C18 diacid-γGlu}-ASEVSTAVVGRLSAELHEVATLPRTETGSGSP-NH2 (SMILES CC(C)C[C@H](NC(=O)[C@H](CCCNC(=N)N)NC(=O)CNC(=O)[C@@H](NC(=O)[C@@H](NC(=O)[C@H](C)NC(=O)[C@@H](NC(=O)[C@H](CO)NC(=O)[C@@H](NC(=O)[C@H](CCC(=O)O)NC(=O)[C@H](CO)NC(=O)[C@H](C)NC(=O)CC[C@H](NC(=O)CCCCCCCCCCCCCCCCC(=O)O)C(=O)O)C(C)C)[C@@H](C)O)C(C)C)C(C)C)C(=O)N[C@@H](CO)C(=O)N[C@@H](C)C(=O)N[C@@H](CCC(=O)O)C(=O)N[C@@H](CC(C)C)C(=O)N[C@@H](Cc1c[nH]cn1)C(=O)N[C@@H](CCC(=O)O)C(=O)N[C@H](C(=O)N[C@@H](C)C(=O)N[C@H](C(=O)N[C@@H](CC(C)C)C(=O)N1CCC[C@H]1C(=O)N[C@@H](CCCNC(=N)N)C(=O)N[C@H](C(=O)N[C@@H](CCC(=O)O)C(=O)N[C@H](C(=O)NCC(=O)N[C@@H](CO)C(=O)NCC(=O)N[C@@H](CO)C(=O)N1CCC[C@H]1C(N)=O)[C@@H](C)O)[C@@H](C)O)[C@@H](C)O)C(C)C) [[N-terminal(C18 diacid-gGlu), des1, 5V, 9V, 10V, 20V, 30S, 31G]mimylin] | 1.24 |
| {C18 diacid-γGlu}-ASELTTAVLGRLSAELHELATLPRTETGSGTP-NH2 (also called Ex. #94) [[N-terminal(C18 diacid-gGlu), des1, 6T, 9V, 30S, 31G, 32T]mimylin] | 0.651 |
| {C18 diacid-γGlu}-ASELTTAVLGRLTAELHELETLPRTETGTGTP-NH2 (SMILES CC(C)C[C@H](NC(=O)[C@H](CCC(=O)O)NC(=O)[C@H](C)NC(=O)[C@@H](NC(=O)[C@H](CC(C)C)NC(=O)[C@H](CCCNC(=N)N)NC(=O)CNC(=O)[C@H](CC(C)C)NC(=O)[C@@H](NC(=O)[C@H](C)NC(=O)[C@@H](NC(=O)[C@@H](NC(=O)[C@H](CC(C)C)NC(=O)[C@H](CCC(=O)O)NC(=O)[C@H](CO)NC(=O)[C@H](C)NC(=O)CC[C@H](NC(=O)CCCCCCCCCCCCCCCCC(=O)O)C(=O)O)[C@@H](C)O)[C@@H](C)O)C(C)C)[C@@H](C)O)C(=O)N[C@@H](Cc1c[nH]cn1)C(=O)N[C@@H](CCC(=O)O)C(=O)N[C@@H](CC(C)C)C(=O)N[C@@H](CCC(=O)O)C(=O)N[C@H](C(=O)N[C@@H](CC(C)C)C(=O)N1CCC[C@H]1C(=O)N[C@@H](CCCNC(=N)N)C(=O)N[C@H](C(=O)N[C@@H](CCC(=O)O)C(=O)N[C@H](C(=O)NCC(=O)N[C@H](C(=O)NCC(=O)N[C@H](C(=O)N1CCC[C@H]1C(N)=O)[C@@H](C)O)[C@@H](C)O)[C@@H](C)O)[C@@H](C)O)[C@@H](C)O) [[N-terminal(C18 diacid-gGlu), des1, 6T, 9V, 14T, 21E, 30T, 31G, 32T]mimylin] | 17.3 |

Source: patent US20160272683A1 (Novo Nordisk, published 2016)
